Assay results published in the supplement of paper PMC11865577.

Legend:
Assay in all cases: pull-down binding Z-score (relative to library population); higher = stronger binding
Conditions in all cases: RNA library: Library-2
[1] = test system: TO-3-N3-2 (biotin conjugate)
Summary of the method: (§1)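 An RNA library (1 μg) carrying a Cy5 or Cy3 end label was heat-folded in phosphate/NaCl/KCl buffer, then incubated for 60 min at 25 °C with streptavidin beads loaded with 100 pmol of biotin-conjugated small molecule. The beads were washed three times, and bound RNA was released in hot SDS and hybridised to a DNA barcode microarray for 20 h at 55.5 °C. Each binding score was derived by subtracting the signal from beads without compound, averaging the barcoded replicate probes after removing the highest and lowest, and expressing the result as a Z-score relative to the library mean and standard deviation.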

[2] = test system: TO-N3-2 (biotin conjugate)
Summary of the method: as §1

TO-N3 (biotin conjugate) = test system: TO-N3 (biotin conjugate)
Summary of the method: as §1

[3] = test system: TO-3-N3 (biotin conjugate)
Summary of the method: as §1

Sequence	pull-down binding Z-score [1]	pull-down binding Z-score [2]	pull-down binding Z-score (TO-N3 (biotin conjugate))	pull-down binding Z-score [3]
GUCUCUGAAGAAGUAGUGGAAAAUCCUACCAUACAGAAAGAC	0.0814	0.831	0.289	-0.0809
GUCUGAUAAUGGACCCCAAAAUCAGCGAAAUGCACCCCGCAUUACGUUUGGUGGACCCUCAGAU	-0.237	-0.0686	-0.521	-0.49
GUCUGGGAUCAACGAGUCAGCGGAC [IAV_invivo_PB1_2_Motif_28+IAV_invivo_PB1_2_Motif_28]	-0.51	0.401	-0.256	-0.28
GUCUGGUAGUCGGAC [IAV_invivo_NA_6_Motif_1+IAV_invivo_NA_6_Motif_1]	-0.235	-0.21	-0.173	-0.00665
GUCUUACACCGUGCGGCACAGGCACUAGUACUGAUGUCGUAUACAGGGCUUUUGAC [DMSMaPseq_invitro_SARS-CoV-2_Motif_242]	0.0142	0.217	0.173	-0.0912
GUCUUUCCAGGGGC [IAV_invivo_NP_5_Motif_23+IAV_invivo_NP_5_Motif_23]	-0.414	-0.0606	-0.393	-0.313
GUGAAACAUUUGUCAC [SHAPE_invivo_SARS-CoV-2_Motif_46]	0.013	-0.394	0.532	0.818
GUGAAGAAUCAU	-0.146	-0.489	0.379	0.637
GUGAAUUCAACAU [DMSMaPseq_invitro_SARS-CoV-2_Motif_308]	-0.213	-0.524	-0.428	-0.238
GUGAGAGAGAGCCGGAACCCAGGGAAUGCUGAGUUCGAAGAUCUCAC [IAV_invivo_NP_5_Motif_14+IAV_invivo_NP_5_Motif_14]	0.125	1.5	0.687	0.351
GUGAUAGAGCCAUGCCUAACAUGCUUAGAAUUAUGGCCUCAC	0.0068	-0.0566	0.179	0.323
GUGAUGAACUGAAGAUUAAUGCGGCUUGUAGAAAGGUUCAACACAUGGUUGUUAAAGCUGCAUUAUUAGCAGACAAAUUCCCAGUUCUUCAC	0.69	0.059	0.101	-0.0396
GUGCACUUGACCCUCUCUCAGAAACAAAGUGUAC [SHAPE_invivo_SARS-CoV-2_Motif_422]	-0.137	-0.312	0.229	0.278
GUGCAGAAUGAAUUCUCGUAACUACAUAGCACAAGUAGAUGUAGUUAACUUUAAUCUCAC	-0.202	-0.275	-0.646	-0.768
GUGCCACUCCAUGGCAC	-0.276	-0.862	0.324	0.641
GUGCCAGCACAAAAUGCUAUAAGCAC [IAV_invivo_PB1_2_Motif_3+IAV_invivo_PB1_2_Motif_3]	-0.201	-0.727	-1.07	-0.871
GUGCCAUCAAAUUGGAUGACAAAGAUCCAAAUUUCAAAGAUCAAGUCAUUUUGCUGAAUAAGCAUAUUGACGCAU	-0.165	-0.159	-0.411	-0.675
